# Data taken from US20180051081A1 (published 2018).
# Numbering of substitutions follows the chain as printed.
# B1: Clone 24 (pVxK7b-037-hum24-LC / pVxK7b-037-hum24-HC) (antibody, human IgG1, kappa, V domains shown)
# VH: QVQLQESGPGLVKPGATVKISCKVSGYTFTNYYVFWVRQARGQRLEWIGDINPVNGDTNFNEKFKNRVTITADKSTSTAYMELSSLRSEDTAVYYCARGGYTMDYWGQGTLVTVSS
# VL: AIQLTQSPSSLSASVGDRVTITCRSSQSLVHSNGNTYLHWYQQKPGQAPRLLIYKVSYRFSGVPSRFSGSGSGTEFTLTISSLQPDDFATYYCSQNTHVPRTFGQGTKVEIKR
# notes: also called Cl 24
# B2: Clone 4 (pVxK7b-037-hum04-LC / pVxK7b-037-hum04-HC) (antibody, human IgG1, kappa, V domains shown)
# VH: QVQLQESGPGLVKPSQTLSLTCTVSGYTFTNYYVFWVRQAPGKGLEWVSDINPVNGDTNFNEKFKNRVTISVDTSKNQFSLKLSSVTAADTAVYYCARGGYTMDYWGQGTLVTVSS
# VL: B1 VL with A1D, L4M, Q42L, A48S, R50Q, V63I, S65A, P85S, D86E, T90V
# B3: Clone 5 (pVxK7b-037-hum05-LC / pVxK7b-037-hum05-HC) (antibody, human IgG1, kappa)
# light: DIVMTQTPLSLPVTPGEPASISCRSSQSLVHSNGNTYLHWYLQKPGQSPQLLIYKVSYRFSGVPDRFSGSGSGTDFTLKISRVEAEDVGVYYCSQNTHVPRTFGQGTKVEIKRTVAAPSVFIFPPSDEQLKSGTASVVCLLNNFYPREAKVQWKVDNALQSGNSQESVTEQDSKDSTYSLSSTLTLSKADYEKHKVYACEVTHQGLSSPVTKSFNRGEC
# heavy: not shown
# B4: Clone 7 (pVxK7b-037-hum07-LC / pVxK7b-037-hum07-HC) (antibody, human IgG1, kappa, V domains shown)
# VH: B1 VH
# VL: DIVMTQTPLSLPVTPGEPASISCRSSQSLVHSNGNTYLHWYLQKPGQSPQLLIYKVSYRFSGVPDRFSGSGSGTDFTLKISRVEAEDVGVYYCSQNTHVPRTFGQGTKVEIKR
# B5: Clone 12 (pVxK7b-037-hum12-LC / pVxK7b-037-hum12-HC) (antibody, human IgG1, kappa, V domains shown)
# VH: B1 VH
# VL: B4 VL with L42Q, Q47K, S48A, Q50K
# B6: Clone 8 (pVxK7b-037-hum08-LC / pVxK7b-037-hum08-HC) (antibody, human IgG1, kappa)
# light: B3 light with L42Q, Q47K, S48A, Q50K
# heavy: not shown
# B7: Clone 11 (pVxK7b-037-hum11-LC / pVxK7b-037-hum11-HC) (antibody, human IgG1, kappa, V domains shown)
# VH: B1 VH
# VL: EIVLTQSPATLSVSPGERATLSCRSSQSLVHSNGNTYLHWYQQKPGQAPRLLIYKVSYRFSGVPSRFSGSGSGTDFTFTISSLEAEDAATYYCSQNTHVPRTFGQGTKVEIKR
# notes: also called Cl 11
# B8: Clone 16 (pVxK7b-037-hum16-LC / pVxK7b-037-hum16-HC) (antibody, human IgG1, kappa, V domains shown)
# VH: QVQLQESGPGLVKPSQTLSLTCTVSGYTFTNYYVFWVRQARGQRLEWIGDINPVNGDTNFNEKFKNRVTISADKSISTAYLQWSSLKASDTAMYYCARGGYTMDYWGQGTLVTVSS
# VL: AIQLTQSPSSLSASVGDRVTITCRSSQSLVHSNGNTYLHWYQQKPGQAPRLLIYKVSYRFSGVPDRFSGSGSGTDFTLKISRVEAEDVGVYYCSQNTHVPRTFGQGTKVEIKR
# B9: Clone 17 (pVxK7b-037-hum17-LC / pVxK7b-037-hum17-HC) (antibody, human IgG1, kappa)
# light: AIQLTQSPSSLSASVGDRVTITCRSSQSLVHSNGNTYLHWYQQKPGQAPRLLIYKVSYRFSGVPDRFSGSGSGTDFTLKISRVEAEDVGVYYCSQNTHVPRTFGQGTKVEIKRTVAAPSVFIFPPSDEQLKSGTASVVCLLNNFYPREAKVQWKVDNALQSGNSQESVTEQDSKDSTYSLSSTLTLSKADYEKHKVYACEVTHQGLSSPVTKSFNRGEC
# heavy: not shown
# B10: Clone 18 (pVxK7b-037-hum18-LC / pVxK7b-037-hum18-HC) (antibody, human IgG1, kappa, V domains shown)
# VH: EVQLVQSGAEVKKPGESLRISCKGSGYTFTNYYVFWIRQSPSRGLEWLGDINPVNGDTNFNEKFKNRVTITADKSTSTAYMELSSLRSEDTAVYYCARGGYTMDYWGQGTLVTVSS
# VL: B7 VL
# Biological target: T1, rat CD47 (rat, UniProt P97829 19-303)
# T1 construct: whole, on cells; also called CD47 on rat RBCs
# T1 sequence (looked up): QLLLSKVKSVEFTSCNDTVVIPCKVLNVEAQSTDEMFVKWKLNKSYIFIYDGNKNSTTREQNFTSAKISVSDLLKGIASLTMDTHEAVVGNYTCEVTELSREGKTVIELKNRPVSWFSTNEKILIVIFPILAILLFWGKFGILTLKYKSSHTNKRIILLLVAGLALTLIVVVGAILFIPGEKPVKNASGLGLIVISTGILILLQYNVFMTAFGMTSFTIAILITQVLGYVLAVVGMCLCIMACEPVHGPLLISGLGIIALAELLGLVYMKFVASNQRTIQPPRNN
# Assay: FACS, rat RBCs, supernatant 10 ng/ml
# Procedure: (§1) RBCs are incubated for 60 minutes on ice with tissue culture supernatants containing the secreted humanized antibodies at a concentration of 10 ng/ml in a solution of phosphate buffered saline, pH 7.2, 2.5 mM EDTA (PBS+E), or with various concentrations of purified antibodies. Cells are then washed with cold PBS+E, and incubated for an additional hour on ice with FITC labeled donkey anti-human antibody (Jackson Immuno Research Labs, West Grove, Pa.; Catalogue #709-096-149) in PBS+E. Cells are then washed with PBS+E, and antibody binding is analyzed using a BD FACSAria Cell Sorter (Becton Dickinson) or a C6 Accuri Flow Cytometer (Becton Dickinson). Antibody binding is quantitated by comparison of mean fluorescence values relative to that of chimeric antibody >VxP037-01LC (SEQ ID NO:7))/>VxP037-01HC (SEQ ID NO:57). The mean fluorescence value for each antibody is divided by the mean fluorescence value for the chimeric antibody.
row,Binder,mean fluorescence relative to chimera
1,B1,1.2
2,B2,1
3,B3,2.2
4,B4,0.8
5,B5,1.3
6,B6,1.2
7,B7,1.2
8,B8,2.1
9,B9,2.1
10,B10,2.2

# Biological target: T2, human CD47 (human, UniProt Q08722 19-323)
# T2 construct: whole, on cells; also called CD47 on human RBCs; CD47 on OV10 cells
# T2 sequence (Q08722 19-323): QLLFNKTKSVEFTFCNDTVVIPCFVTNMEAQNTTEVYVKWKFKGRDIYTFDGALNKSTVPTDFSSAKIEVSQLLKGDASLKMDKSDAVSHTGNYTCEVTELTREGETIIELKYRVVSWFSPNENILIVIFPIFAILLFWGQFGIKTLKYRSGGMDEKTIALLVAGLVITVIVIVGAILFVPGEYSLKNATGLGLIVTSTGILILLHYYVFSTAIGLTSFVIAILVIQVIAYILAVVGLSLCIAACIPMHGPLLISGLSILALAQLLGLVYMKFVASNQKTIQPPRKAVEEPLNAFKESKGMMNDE
# Assay: FACS, human RBCs, supernatant 10 ng/ml
# Procedure: as §1
row,Binder,mean fluorescence relative to chimera
1,B1,0.8
2,B2,0.6
3,B3,1
4,B4,0.5
5,B5,0.8
6,B6,0.7
7,B7,0.8
8,B8,0.9
9,B9,0.8
10,B10,1

# Biological target: T3, mouse CD47 (mouse, UniProt Q61735 19-303)
# T3 construct: whole, on cells; also called CD47 on mouse RBCs; CD47 on 4T1 cells
# T3 sequence (looked up): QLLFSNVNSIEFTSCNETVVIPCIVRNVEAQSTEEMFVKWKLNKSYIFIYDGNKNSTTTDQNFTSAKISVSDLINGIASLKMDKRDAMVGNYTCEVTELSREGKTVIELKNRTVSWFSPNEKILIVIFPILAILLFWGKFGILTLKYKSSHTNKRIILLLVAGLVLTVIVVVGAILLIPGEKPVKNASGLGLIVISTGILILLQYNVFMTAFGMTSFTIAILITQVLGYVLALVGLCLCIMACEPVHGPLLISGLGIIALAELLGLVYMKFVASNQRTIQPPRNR
# Assay: FACS, mouse RBCs, supernatant 10 ng/ml
# Procedure: as §1
row,Binder,mean fluorescence relative to chimera
1,B1,0.7
2,B2,0.6
3,B3,1
4,B4,0.4
5,B5,0.6
6,B6,0.7
7,B7,0.7
8,B8,1
9,B9,0.9
10,B10,1.3

# Biological target: T4, pig CD47 (pig, UniProt Q9GKE8 19-303)
# T4 construct: whole, on cells; also called CD47 on porcine RBCs
# T4 sequence (looked up): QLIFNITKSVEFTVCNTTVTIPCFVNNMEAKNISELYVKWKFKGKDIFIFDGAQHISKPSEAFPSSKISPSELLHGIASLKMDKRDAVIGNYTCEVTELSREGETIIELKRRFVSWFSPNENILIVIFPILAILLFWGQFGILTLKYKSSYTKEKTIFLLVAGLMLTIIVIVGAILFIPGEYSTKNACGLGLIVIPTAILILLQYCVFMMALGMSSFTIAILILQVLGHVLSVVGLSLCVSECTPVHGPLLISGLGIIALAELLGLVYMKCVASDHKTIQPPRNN
# Assay: FACS, pig RBCs, supernatant 10 ng/ml
# Procedure: as §1
row,Binder,mean fluorescence relative to chimera
1,B1,1.1
2,B2,0.6
3,B3,1.2
4,B4,0.9
5,B5,1.4
6,B6,0.8
7,B7,1.2
8,B8,1.1
9,B9,1.3
10,B10,1.2

# Biological target: T5, dog CD47 (dog, UniProt A0A8I3PM61 19-310)
# T5 construct: also called CD47 on dog RBCs
# T5 sequence: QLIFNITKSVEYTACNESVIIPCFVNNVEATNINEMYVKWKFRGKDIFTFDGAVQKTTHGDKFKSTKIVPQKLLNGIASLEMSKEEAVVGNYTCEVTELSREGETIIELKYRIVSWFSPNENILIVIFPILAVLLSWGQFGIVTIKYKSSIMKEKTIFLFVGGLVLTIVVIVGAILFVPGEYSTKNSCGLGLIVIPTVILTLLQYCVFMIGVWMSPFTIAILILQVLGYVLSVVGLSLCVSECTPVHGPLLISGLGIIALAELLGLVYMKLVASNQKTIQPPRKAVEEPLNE
# Assay: FACS, dog RBCs, supernatant 10 ng/ml
# Procedure: as §1
row,Binder,mean fluorescence relative to chimera
1,B1,1
2,B2,0.6
3,B3,1.1
4,B4,0.8
5,B5,0.9
6,B6,0.8
7,B7,0.8
8,B8,1.1
9,B9,1.3
10,B10,1.5
